B1: wild-type dihydropyrimidine dehydrogenase (DPD) (enzyme, human, UniProt Q12882 4-1025, looked up)
chain: VLSKDSADIESILALNPRTQTHATLCSTSAKKLDKKHWKRNPDKNCFNCEKLENNFDDIKHTTLGERGALREAMRCLKCADAPCQKSCPTNLDIKSFITSIANKNYYGAAKMIFSDNPLGLTCGMVCPTSDLCVGGCNLYATEEGPINIGGLQQFATEVFKAMSIPQIRNPSLPPPEKMSEAYSAKIALFGAGPASISCASFLARLGYSDITIFEKQEYVGGLSTSEIPQFRLPYDVVNFEIELMKDLGVKIICGKSLSVNEMTLSTLKEKGYKAAFIGIGLPEPNKDAIFQGLTQDQGFYTSKDFLPLVAKGSKAGMCACHSPLPSIRGVVIVLGAGDTAFDCATSALRCGARRVFIVFRKGFVNIRAVPEEMELAKEEKCEFLPFLSPRKVIVKGGRIVAMQFVRTEQDETGKWNEDEDQMVHLKADVVISAFGSVLSDPKVKEALSPIKFNRWGLPEVDPETMQTSEAWVFAGGDVVGLANTTVESVNDGKQASWYIHKYVQSQYGASVSAKPELPLFYTPIDLVDISVEMAGLKFINPFGLASATPATSTSMIRRAFEAGWGFALTKTFSLDKDIVTNVSPRIIRGTTSGPMYGPGQSSFLNIELISEKTAAYWCQSVTELKADFPDNIVIASIMCSYNKNDWTELAKKSEDSGADALELNLSCPHGMGERGMGLACGQDPELVRNICRWVRQAVQIPFFAKLTPNVTDIVSIARAAKEGGANGVTATNTVSGLMGLKSDGTPWPAVGIAKRTTYGGVSGTAIRPIALRAVTSIARALPGFPILATGGIDSAESGLQFLHSGASVLQVCSAIQNQDFTVIEDYCTGLKALLYLKSIEELQDWDGQSPATVSHQKGKPVPRIAELMDKKLPSFGPYLEQRKKIIAENKIRLKEQNVAFSPLKRNCFIPKRPIPTIKDVIGKALQYLGTFGELSNVEQVVAMIDEEMCINCGKCYMTCNDSGYQAIQFDPETHLPTITDTCTGCTLCLSVCPIVDCIKMVSRTTPYEPKRGVPLSVNPVC
notes: dihydropyrimidine dehydrogenase (DPD), human, wild-type DPYD cDNA; the open-reading frame encodes 1,025 amino acid residues; no tag is stated; also called wild-type DPD; source: 293FT cells, transfected (pcDNA3.4), soluble fraction
B2: DPD variant D291N (enzyme, human, UniProt Q12882 4-1025, looked up)
chain: VLSKDSADIESILALNPRTQTHATLCSTSAKKLDKKHWKRNPDKNCFNCEKLENNFDDIKHTTLGERGALREAMRCLKCADAPCQKSCPTNLDIKSFITSIANKNYYGAAKMIFSDNPLGLTCGMVCPTSDLCVGGCNLYATEEGPINIGGLQQFATEVFKAMSIPQIRNPSLPPPEKMSEAYSAKIALFGAGPASISCASFLARLGYSDITIFEKQEYVGGLSTSEIPQFRLPYDVVNFEIELMKDLGVKIICGKSLSVNEMTLSTLKEKGYKAAFIGIGLPEPNKNAIFQGLTQDQGFYTSKDFLPLVAKGSKAGMCACHSPLPSIRGVVIVLGAGDTAFDCATSALRCGARRVFIVFRKGFVNIRAVPEEMELAKEEKCEFLPFLSPRKVIVKGGRIVAMQFVRTEQDETGKWNEDEDQMVHLKADVVISAFGSVLSDPKVKEALSPIKFNRWGLPEVDPETMQTSEAWVFAGGDVVGLANTTVESVNDGKQASWYIHKYVQSQYGASVSAKPELPLFYTPIDLVDISVEMAGLKFINPFGLASATPATSTSMIRRAFEAGWGFALTKTFSLDKDIVTNVSPRIIRGTTSGPMYGPGQSSFLNIELISEKTAAYWCQSVTELKADFPDNIVIASIMCSYNKNDWTELAKKSEDSGADALELNLSCPHGMGERGMGLACGQDPELVRNICRWVRQAVQIPFFAKLTPNVTDIVSIARAAKEGGANGVTATNTVSGLMGLKSDGTPWPAVGIAKRTTYGGVSGTAIRPIALRAVTSIARALPGFPILATGGIDSAESGLQFLHSGASVLQVCSAIQNQDFTVIEDYCTGLKALLYLKSIEELQDWDGQSPATVSHQKGKPVPRIAELMDKKLPSFGPYLEQRKKIIAENKIRLKEQNVAFSPLKRNCFIPKRPIPTIKDVIGKALQYLGTFGELSNVEQVVAMIDEEMCINCGKCYMTCNDSGYQAIQFDPETHLPTITDTCTGCTLCLSVCPIVDCIKMVSRTTPYEPKRGVPLSVNPVC
notes: dihydropyrimidine dehydrogenase (DPD), human, DPYD cDNA with a variant found in Japanese individuals; made by site-directed mutagenesis of the wild-type construct; also called 871G > A; source: 293FT cells, transfected (pcDNA3.4), soluble fraction
B3: DPD variant V313L (enzyme, human, UniProt Q12882 4-1025, looked up)
chain: VLSKDSADIESILALNPRTQTHATLCSTSAKKLDKKHWKRNPDKNCFNCEKLENNFDDIKHTTLGERGALREAMRCLKCADAPCQKSCPTNLDIKSFITSIANKNYYGAAKMIFSDNPLGLTCGMVCPTSDLCVGGCNLYATEEGPINIGGLQQFATEVFKAMSIPQIRNPSLPPPEKMSEAYSAKIALFGAGPASISCASFLARLGYSDITIFEKQEYVGGLSTSEIPQFRLPYDVVNFEIELMKDLGVKIICGKSLSVNEMTLSTLKEKGYKAAFIGIGLPEPNKDAIFQGLTQDQGFYTSKDFLPLLAKGSKAGMCACHSPLPSIRGVVIVLGAGDTAFDCATSALRCGARRVFIVFRKGFVNIRAVPEEMELAKEEKCEFLPFLSPRKVIVKGGRIVAMQFVRTEQDETGKWNEDEDQMVHLKADVVISAFGSVLSDPKVKEALSPIKFNRWGLPEVDPETMQTSEAWVFAGGDVVGLANTTVESVNDGKQASWYIHKYVQSQYGASVSAKPELPLFYTPIDLVDISVEMAGLKFINPFGLASATPATSTSMIRRAFEAGWGFALTKTFSLDKDIVTNVSPRIIRGTTSGPMYGPGQSSFLNIELISEKTAAYWCQSVTELKADFPDNIVIASIMCSYNKNDWTELAKKSEDSGADALELNLSCPHGMGERGMGLACGQDPELVRNICRWVRQAVQIPFFAKLTPNVTDIVSIARAAKEGGANGVTATNTVSGLMGLKSDGTPWPAVGIAKRTTYGGVSGTAIRPIALRAVTSIARALPGFPILATGGIDSAESGLQFLHSGASVLQVCSAIQNQDFTVIEDYCTGLKALLYLKSIEELQDWDGQSPATVSHQKGKPVPRIAELMDKKLPSFGPYLEQRKKIIAENKIRLKEQNVAFSPLKRNCFIPKRPIPTIKDVIGKALQYLGTFGELSNVEQVVAMIDEEMCINCGKCYMTCNDSGYQAIQFDPETHLPTITDTCTGCTLCLSVCPIVDCIKMVSRTTPYEPKRGVPLSVNPVC
notes: dihydropyrimidine dehydrogenase (DPD), human, DPYD cDNA with a variant found in Japanese individuals; made by site-directed mutagenesis of the wild-type construct; also called 937G > T; source: 293FT cells, transfected (pcDNA3.4), soluble fraction
B4: DPD variant Y304H (enzyme, human, UniProt Q12882 4-1025, looked up)
chain: VLSKDSADIESILALNPRTQTHATLCSTSAKKLDKKHWKRNPDKNCFNCEKLENNFDDIKHTTLGERGALREAMRCLKCADAPCQKSCPTNLDIKSFITSIANKNYYGAAKMIFSDNPLGLTCGMVCPTSDLCVGGCNLYATEEGPINIGGLQQFATEVFKAMSIPQIRNPSLPPPEKMSEAYSAKIALFGAGPASISCASFLARLGYSDITIFEKQEYVGGLSTSEIPQFRLPYDVVNFEIELMKDLGVKIICGKSLSVNEMTLSTLKEKGYKAAFIGIGLPEPNKDAIFQGLTQDQGFHTSKDFLPLVAKGSKAGMCACHSPLPSIRGVVIVLGAGDTAFDCATSALRCGARRVFIVFRKGFVNIRAVPEEMELAKEEKCEFLPFLSPRKVIVKGGRIVAMQFVRTEQDETGKWNEDEDQMVHLKADVVISAFGSVLSDPKVKEALSPIKFNRWGLPEVDPETMQTSEAWVFAGGDVVGLANTTVESVNDGKQASWYIHKYVQSQYGASVSAKPELPLFYTPIDLVDISVEMAGLKFINPFGLASATPATSTSMIRRAFEAGWGFALTKTFSLDKDIVTNVSPRIIRGTTSGPMYGPGQSSFLNIELISEKTAAYWCQSVTELKADFPDNIVIASIMCSYNKNDWTELAKKSEDSGADALELNLSCPHGMGERGMGLACGQDPELVRNICRWVRQAVQIPFFAKLTPNVTDIVSIARAAKEGGANGVTATNTVSGLMGLKSDGTPWPAVGIAKRTTYGGVSGTAIRPIALRAVTSIARALPGFPILATGGIDSAESGLQFLHSGASVLQVCSAIQNQDFTVIEDYCTGLKALLYLKSIEELQDWDGQSPATVSHQKGKPVPRIAELMDKKLPSFGPYLEQRKKIIAENKIRLKEQNVAFSPLKRNCFIPKRPIPTIKDVIGKALQYLGTFGELSNVEQVVAMIDEEMCINCGKCYMTCNDSGYQAIQFDPETHLPTITDTCTGCTLCLSVCPIVDCIKMVSRTTPYEPKRGVPLSVNPVC
notes: dihydropyrimidine dehydrogenase (DPD), human, DPYD cDNA with a variant found in Japanese individuals; made by site-directed mutagenesis of the wild-type construct; also called 910T > C; source: 293FT cells, transfected (pcDNA3.4), soluble fraction
B5: DPD variant T298M (enzyme, human, UniProt Q12882 4-1025, looked up)
chain: VLSKDSADIESILALNPRTQTHATLCSTSAKKLDKKHWKRNPDKNCFNCEKLENNFDDIKHTTLGERGALREAMRCLKCADAPCQKSCPTNLDIKSFITSIANKNYYGAAKMIFSDNPLGLTCGMVCPTSDLCVGGCNLYATEEGPINIGGLQQFATEVFKAMSIPQIRNPSLPPPEKMSEAYSAKIALFGAGPASISCASFLARLGYSDITIFEKQEYVGGLSTSEIPQFRLPYDVVNFEIELMKDLGVKIICGKSLSVNEMTLSTLKEKGYKAAFIGIGLPEPNKDAIFQGLMQDQGFYTSKDFLPLVAKGSKAGMCACHSPLPSIRGVVIVLGAGDTAFDCATSALRCGARRVFIVFRKGFVNIRAVPEEMELAKEEKCEFLPFLSPRKVIVKGGRIVAMQFVRTEQDETGKWNEDEDQMVHLKADVVISAFGSVLSDPKVKEALSPIKFNRWGLPEVDPETMQTSEAWVFAGGDVVGLANTTVESVNDGKQASWYIHKYVQSQYGASVSAKPELPLFYTPIDLVDISVEMAGLKFINPFGLASATPATSTSMIRRAFEAGWGFALTKTFSLDKDIVTNVSPRIIRGTTSGPMYGPGQSSFLNIELISEKTAAYWCQSVTELKADFPDNIVIASIMCSYNKNDWTELAKKSEDSGADALELNLSCPHGMGERGMGLACGQDPELVRNICRWVRQAVQIPFFAKLTPNVTDIVSIARAAKEGGANGVTATNTVSGLMGLKSDGTPWPAVGIAKRTTYGGVSGTAIRPIALRAVTSIARALPGFPILATGGIDSAESGLQFLHSGASVLQVCSAIQNQDFTVIEDYCTGLKALLYLKSIEELQDWDGQSPATVSHQKGKPVPRIAELMDKKLPSFGPYLEQRKKIIAENKIRLKEQNVAFSPLKRNCFIPKRPIPTIKDVIGKALQYLGTFGELSNVEQVVAMIDEEMCINCGKCYMTCNDSGYQAIQFDPETHLPTITDTCTGCTLCLSVCPIVDCIKMVSRTTPYEPKRGVPLSVNPVC
notes: dihydropyrimidine dehydrogenase (DPD), human, DPYD cDNA with a variant found in Japanese individuals; made by site-directed mutagenesis of the wild-type construct; also called 893C > T; source: 293FT cells, transfected (pcDNA3.4), soluble fraction
B6: DPD variant I245F (enzyme, human, UniProt Q12882 4-1025, looked up)
chain: VLSKDSADIESILALNPRTQTHATLCSTSAKKLDKKHWKRNPDKNCFNCEKLENNFDDIKHTTLGERGALREAMRCLKCADAPCQKSCPTNLDIKSFITSIANKNYYGAAKMIFSDNPLGLTCGMVCPTSDLCVGGCNLYATEEGPINIGGLQQFATEVFKAMSIPQIRNPSLPPPEKMSEAYSAKIALFGAGPASISCASFLARLGYSDITIFEKQEYVGGLSTSEIPQFRLPYDVVNFEFELMKDLGVKIICGKSLSVNEMTLSTLKEKGYKAAFIGIGLPEPNKDAIFQGLTQDQGFYTSKDFLPLVAKGSKAGMCACHSPLPSIRGVVIVLGAGDTAFDCATSALRCGARRVFIVFRKGFVNIRAVPEEMELAKEEKCEFLPFLSPRKVIVKGGRIVAMQFVRTEQDETGKWNEDEDQMVHLKADVVISAFGSVLSDPKVKEALSPIKFNRWGLPEVDPETMQTSEAWVFAGGDVVGLANTTVESVNDGKQASWYIHKYVQSQYGASVSAKPELPLFYTPIDLVDISVEMAGLKFINPFGLASATPATSTSMIRRAFEAGWGFALTKTFSLDKDIVTNVSPRIIRGTTSGPMYGPGQSSFLNIELISEKTAAYWCQSVTELKADFPDNIVIASIMCSYNKNDWTELAKKSEDSGADALELNLSCPHGMGERGMGLACGQDPELVRNICRWVRQAVQIPFFAKLTPNVTDIVSIARAAKEGGANGVTATNTVSGLMGLKSDGTPWPAVGIAKRTTYGGVSGTAIRPIALRAVTSIARALPGFPILATGGIDSAESGLQFLHSGASVLQVCSAIQNQDFTVIEDYCTGLKALLYLKSIEELQDWDGQSPATVSHQKGKPVPRIAELMDKKLPSFGPYLEQRKKIIAENKIRLKEQNVAFSPLKRNCFIPKRPIPTIKDVIGKALQYLGTFGELSNVEQVVAMIDEEMCINCGKCYMTCNDSGYQAIQFDPETHLPTITDTCTGCTLCLSVCPIVDCIKMVSRTTPYEPKRGVPLSVNPVC
notes: dihydropyrimidine dehydrogenase (DPD), human, DPYD cDNA with a variant found in Japanese individuals; made by site-directed mutagenesis of the wild-type construct; also called 733A > T; source: 293FT cells, transfected (pcDNA3.4), soluble fraction

Target: the molecule itself
Assay: native gel or EMSA; blue native PAGE (Tris-glycine buffer, 5%-20% polyacrylamide gels), 9 μg of the soluble fraction of transfected 293FT cells per lane, immunoblot with polyclonal anti-human DPD antibody; monomer to dimer

B1 was tested. Which “stoichiometry N” value did it give?
Its value is 2.

B2 was tested. Which “stoichiometry N” value did it give?
The value was 2.

How did the “stoichiometry N” value turn out when B3 was run?
The value was 2.

Which “stoichiometry N” value does the source give for B4 here?
Its value is 2.

How did the “stoichiometry N” value turn out when B5 was run?
Its value is 2.

With B6 as the protein, how does the “stoichiometry N” value read?
Its value is 2.

Reference: paper PMC9242541, “Importance of Rare DPYD Genetic Polymorphisms for 5-Fluorouracil Therapy in the Japanese Population” (Frontiers in Pharmacology, 2022)
